{"source": "patent US20260158153A1", "about": "“BCMA MONOCLONAL ANTIBODY AND THE ANTIBODY-DRUG CONJUGATE” (priority 2021, published 2026)", "molecules": {"B1": {"name": "Hybridoma monoclonal antibody BCMA-A2-6H4-5D2 (antibody, V domains shown)", "VH": "EVQLQQSGPELVKPGASVKMSCKASGYTFTSFLIHWVKQKPGQGLEWIGFIIPYNDGTKYNEKFKGKATLTSDKSSSTAYMELSSLTSEDSAVYYCARYDGSFEGYFDVWGAGTTLTVSS", "VL": "DVLMTQTPLSLPVSLRDQASISCRSSQSLVHSDGNTYLHWYLQKPGQSPKLLIYKVSNRFSGVPDRFSGSGSGTDFTLKISRVEAEDLGVYFCSQSTHVPWTFGGGTKLEIK", "notes": "Murine hybridoma antibody from BalB/c mice; also called clone BCMA-A2-6H4-5D2; CCTCC C2022188"}, "B2": {"name": "J6M0 (antibody, V domains shown)", "VH": "QVQLVQSGAEVKKPGSSVKVSCKASGGTFSNYWMHWVRQAPGQGLEWMGATYRGHSDTYYNQKFKGRVTITADKSTSTAYMELSSLRSEDTAVYYCARGAIYDGYDVLDNWGQGTLVTVSS", "VL": "DIQMTQSPSSLSASVGDRVTITCSASQDISNYLNWYQQKPGKAPKLLIYYTSNLHSGVPSRFSGSGSGTDFTLTISSLQPEDFATYYCQQYRKLPWTFGQGTKLEIK"}, "B3": {"name": "Humanized antibody hu5D2 (antibody, human IgG1, kappa, V domains shown)", "VH": "QVQLVQSGAEVVKPGASVKMSCKASGYTFTSFLIHWVKQAPGQGLEWIGFIIPGNGGTKYNQKFQGKATLTSDTSSSTAYMELSSLRSEDSAVYYCARYDGSFEGYFDVWGQGTTLTVSS", "VL": "DVVMTQSPLSLPVSLRQPASISCRSSQSLVHSDGNTYLHWYLQKPGQSPRLLIYKVSNRDSGVPDRFSGSGSGTDFTLKISRVEAEDLGVYFCSQSTHWPWTFGQGTKLEIKR", "modifications": "N-linked glycan at Asn300", "notes": "also called Hu5D2 antibody; BCMA antibody"}, "B4": {"name": "hu5D2-Tub (antibody, human IgG1, kappa, V domains shown)", "VH": "QVQLVQSGAEVVKPGASVKMSCKASGYTFTSFLIHWVKQAPGQGLEWIGFIIPGNGGTKYNQKFQGKATLTSDTSSSTAYMELSSLRSEDSAVYYCARYDGSFEGYFDVWGQGTTLTVSS", "VL": "DVVMTQSPLSLPVSLRQPASISCRSSQSLVHSDGNTYLHWYLQKPGQSPRLLIYKVSNRDSGVPDRFSGSGSGTDFTLKISRVEAEDLGVYFCSQSTHWPWTFGQGTKLEIKR", "modifications": "conjugated to a tubulysin analog payload; sites and drug/antibody ratio of the lot used in Fig. 3 are not given", "notes": "Antibody-drug conjugate of hu5D2; also called hu5D2 conjugated ADC; hu5D2-tub196"}, "B5": {"name": "c5D2 (antibody, human IgG1, kappa, V domains shown)", "VH": "EVQLQQSGPELVKPGASVKMSCKASGYTFTSFLIHWVKQKPGQGLEWIGFIIPYNDGTKYNEKFKGKATLTSDKSSSTAYMELSSLTSEDSAVYYCARYDGSFEGYFDVWGAGTTLTVSS", "VL": "DVLMTQTPLSLPVSLRDQASISCRSSQSLVHSDGNTYLHWYLQKPGQSPKLLIYKVSNRFSGVPDRFSGSGSGTDFTLKISRVEAEDLGVYFCSQSTHVPWTFGGGTKLEIKT", "notes": "VH/VL of BCMA-A2-6H4-5D2 fused to human IgG1 and kappa constant domains; also called chimeric antibody c5D2"}}, "key": {"[1]": {"test_system": "multiple myeloma (MM) patients", "conditions": "cited from earlier work"}, "[2]": {"test_system": "MM1S", "test": "MTT in vitro cytotoxicity assay of BCMA antibody conjugates, MM1S", "assay_type": "cell-based", "conditions": "Homo sapiens, MM1.S, 6000 cells, 96 h incubation, conjugates prepared via homogeneous conjugation process", "method": "(§1) The cell lines used in the cytotoxicity assays were (1). NCI-H929, JJN3, U266, and MM1S were obtained from ATCC, and 8226-2A1cell is Myeloma antigen express cells through culturing and clone-picking of ATCC's RPMI-8226. The cells were grown according to the provider manuals. To run the assay, the cells (180 μl, 6000 cells) were added to each well in a 96-well plate and incubated for 24 hours at 37° C. with 5% CO2. Next, the cells were treated with test compounds (20 μl) at various concentrations in appropriate cell culture medium (total volume, 0.2 mL). The control wells contain cells and the medium but lack the test compounds. […] MTT (5 mg/mL) was then added to the wells (20 μl) and the plates were incubated for 1.5 hr at 37° C. The medium was carefully removed and DMSO (180 μl) was added afterward. After it was shaken for 15 min, the absorbance was measured at 490 nm and 570 nm with a reference filter of 620 nm. The inhibition % was calculated according to the following equation: inhibition %=[1−(assay-blank)/(control-blank)]×100."}, "[3]": {"test_system": "JJN-3", "test": "MTT in vitro cytotoxicity assay of BCMA antibody conjugates, JJN-3", "assay_type": "cell-based", "conditions": "Homo sapiens, 6000 cells, 96 h incubation, conjugates prepared via homogeneous conjugation process", "method": "as §1"}, "[4]": {"test_system": "JJN-3 cell xenograft", "test": "Antitumor activity in vivo, JJN-3 cell xenograft mouse model of multiple myeloma", "conditions": "FIG. 10; single dose 5 mg/Kg"}, "[5]": {"test_system": "NCI-H929", "test": "MTT in vitro cytotoxicity assay of BCMA antibody conjugates, NCI-H929", "assay_type": "cell-based", "conditions": "Homo sapiens, 6000 cells, 96 h incubation, conjugates prepared via homogeneous conjugation process", "method": "as §1"}, "[6]": {"target": "T1, Human B cell maturation antigen (BCMA, CD269) (human, UniProt Q02223 1-54)", "T1 construct": "Flow cytometry used whole BCMA on NCI-H929 and RPMI-8226-BCMA cells; also called hBCMA", "T1 sequence": "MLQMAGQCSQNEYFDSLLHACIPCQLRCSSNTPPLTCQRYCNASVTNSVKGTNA", "test": "ELISA on recombinant TrxA-BCMA, OD450 against IgG concentration"}, "[7]": {"target": "T1, Human B cell maturation antigen (BCMA, …)", "test": "ELISA, plate coated with 1 ug/ml soluble BCMA (recombinant TrxA-BCMA), OD450 against IgG concentration"}, "[8]": {"target": "T1, Human B cell maturation antigen (BCMA, …)", "test": "flow cytometry on NCI-H929 cells with endogenous BCMA, PE anti-human IgG Fc secondary, MFI against concentration"}}}
{"molecule": "Belantamabmafodotin", "values": [{"measurement": "overall response rate", "setting": "[1]; for MM", "value": 32, "unit": "%"}, {"measurement": "patients reported ocular toxicities requiring dose adjustments, dose delays and treatment discontinuations", "setting": "[1]; patients with this ADC", "value": "over 60%"}]}
{"molecule": "CC(=O)O[C@H]1C(=O)[C@@]2(C)[C@H]([C@H](OC(=O)c3ccccc3)[C@]3(O)C[C@H](OC(=O)[C@H](O)[C@@H](NC(=O)c4ccccc4)c4ccccc4)C(C)=C1C3(C)C)[C@]1(OC(C)=O)CO[C@@H]1C[C@@H]2O", "note": "[Paclitaxel]", "values": [{"measurement": "IC50", "setting": "[2]", "value": 3.28, "unit": "nM"}, {"measurement": "IC50", "setting": "[3]", "value": 4.31, "unit": "nM"}, {"measurement": "orders of the antitumor activity", "setting": "[4]", "value": "Paclitaxel<C-385"}, {"measurement": "IC50", "setting": "[5]", "value": 2.89, "unit": "nM"}]}
{"molecule": "B1", "values": [{"measurement": "EC50 (read off the curve)", "setting": "[6]", "value": "~0.09", "unit": "µg/mL"}, {"measurement": "EC50 (read off the curve)", "setting": "[7]", "value": "~0.01", "unit": "µg/mL"}]}
{"molecule": "B2", "values": [{"measurement": "EC50 (read off the curve)", "setting": "[6]", "value": "~0.04", "unit": "µg/mL"}, {"measurement": "EC50 (read off the curve)", "setting": "[7]", "value": "~0.06", "unit": "µg/mL"}]}
{"molecule": "B3", "values": [{"measurement": "EC50 (read off the curve)", "setting": "[7]", "value": "~0.02", "unit": "µg/mL"}, {"measurement": "EC50 (read off the curve)", "setting": "[8]", "value": "~0.05", "unit": "µg/mL"}]}
{"molecule": "B4", "values": [{"measurement": "EC50 (read off the curve)", "setting": "[8]", "value": "~0.06", "unit": "µg/mL"}]}
{"molecule": "B5", "values": [{"measurement": "EC50 (read off the curve)", "setting": "[7]", "value": "~0.05", "unit": "µg/mL"}]}
